From patent US20260274985A1 (MYTHIC THERAPEUTICS, published 2026) come the findings set out here.

Positions count from the first letter of the chain named.

T1: Human TROP2 Protein, His Tag (Acro Biosystems) (human, UniProt P09758 27-274)
T1 construct: not shown: His tag
T1 sequence (looked up): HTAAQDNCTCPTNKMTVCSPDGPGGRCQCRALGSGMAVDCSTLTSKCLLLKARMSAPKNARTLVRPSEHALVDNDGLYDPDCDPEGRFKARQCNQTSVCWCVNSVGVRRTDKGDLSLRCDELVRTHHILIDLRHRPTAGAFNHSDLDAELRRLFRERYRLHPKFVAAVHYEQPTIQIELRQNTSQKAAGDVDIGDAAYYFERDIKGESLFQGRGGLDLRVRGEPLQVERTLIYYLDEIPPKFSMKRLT

T2: Human TROP2 Protein, His Tag (Acro Biosystems) (human, UniProt P09758 27-274)
T2 construct: Soluble analyte of the Octet assay; also called TACSTD2; not shown: His tag
T2 sequence (looked up): T1 sequence (looked up)

B1: MYT12328 (antibody, V domains shown)
VH: QVQLQQSGSELKKPGASVKVSCKASGYTFTNYGMNWVKQAPGQGLKWMGWINTYTGEPTHTDDHHGRFAFSLDTSVSTAYLQISSLKADDTAVYFCARGGFGSSYWYFDVWGQGSLVTVSS
VL: DIQLTQSPSSLSASVGDRVSITCKASQDVSIAVAWYQQKPGKAPKLLIYSASYRYTGVPDRFSGSGSGTDFTLTISSLQPEDFAVYYCQQHYITPLTFGAGTKVEIK
notes: sacituzumab VH 60, 64, 65 -> H
B2: MYT12340 (antibody, V domains shown)
VH: B1 VH with H60Y, H64F, H65K
VL: B1 VL with V33H, A51H
notes: sacituzumab VL 33, 51 -> H
B3: MYT12333 (antibody, V domains shown)
VH: B1 VH with H60Y, H64F, H65K
VL: B1 VL with S30H, A51H
notes: sacituzumab VL 30, 51 -> H
B4: MYT12336 (antibody, V domains shown)
VH: B1 VH with H60Y, H64F, H65K
VL: B1 VL with S30H, Q89H
notes: sacituzumab VL 30, 89 -> H
B5: MYT12332 (antibody, V domains shown)
VH: B1 VH with H60Y, H64F, H65K
VL: B1 VL with S30H, V33H
notes: sacituzumab VL 30, 33 -> H
B6: MYT12329 (antibody, V domains shown)
VH: B1 VH with H65K, G66H
VL: B1 VL
notes: sacituzumab VH 60, 64, 66 -> H
B7: MYT12335 (antibody, V domains shown)
VH: B1 VH with H60Y, H64F, H65K
VL: B1 VL with S30H, Y53H
notes: sacituzumab VL 30, 53 -> H
B8: MYT12341 (antibody, V domains shown)
VH: B1 VH with H60Y, H64F, H65K
VL: B1 VL with V33H, S52H
notes: sacituzumab VL 33, 52 -> H
B9: MYT12334 (antibody, V domains shown)
VH: B1 VH with H60Y, H64F, H65K
VL: B1 VL with S30H, S52H
notes: sacituzumab VL 30, 52 -> H
B10: MYT12339 (antibody, V domains shown)
VH: B1 VH with H60Y, H64F, H65K
VL: B1 VL with S30H, I93H
notes: sacituzumab VL 30, 93 -> H
B11: MYT13248 (antibody, V domains shown)
VH: B1 VH with Y32H, H60Y, H64F, H65K
VL: B1 VL with S52H, I93H
notes: Sacituzumab HC-LC pairing variant; IgG
B12: MYT13211 (antibody, V domains shown)
VH: B1 VH with H60Y, D62H, H64F, H65K
VL: B1 VL with H91A
notes: as for B11
B13: MYT13226 (antibody, V domains shown)
VH: B1 VH with H64F, H65K
VL: B1 VL with I93H
notes: as for B11
B14: MYT13207 (antibody, V domains shown)
VH: B1 VH with H60Y, H64F, H65K, G66H
VL: B1 VL with Q89H
notes: as for B11
B15: MYT13242 (antibody, V domains shown)
VH: B1 VH with H64F, H65K
VL: B1 VL with A51H, Q89H
notes: as for B11
B16: MYT13235 (antibody, V domains shown)
VH: B1 VH with H60Y, D62H, H64F, H65K
VL: B1 VL with A51H, S52H
notes: as for B11
B17: MYT13224 (antibody, V domains shown)
VH: B1 VH with Y32H, H60Y, H64F, H65K
VL: B1 VL with I93H
notes: as for B11
B18: MYT13212 (antibody, V domains shown)
VH: B1 VH with H60Y, D63H, H64F, H65K
VL: B1 VL with H91A
notes: as for B11
B19: MYT13225 (antibody, V domains shown)
VH: B1 VH with G33H, H60Y, H64F, H65K
VL: B1 VL with I93H
notes: as for B11
B20: MYT13215 (antibody, V domains shown)
VH: B1 VH with H60Y, H64F, H65K, G66H
VL: B1 VL with H91A
notes: as for B11
B21: MYT13205 (antibody, V domains shown)
VH: B1 VH with H60Y, H65K
VL: B1 VL with Q89H
notes: as for B11
B22: MYT13246 (antibody, V domains shown)
VH: B1 VH with H60Y, H64F
VL: B1 VL with A51H, Q89H
notes: as for B11
B23: MYT13245 (antibody, V domains shown)
VH: B1 VH with H60Y, H65K
VL: B1 VL with A51H, Q89H
notes: as for B11
B24: MYT13228 (antibody, V domains shown)
VH: B1 VH with H60Y, D63H, H64F, H65K
VL: B1 VL with I93H
notes: as for B11
B25: MYT13214 (antibody, V domains shown)
VH: B1 VH with H60Y, H64F
VL: B1 VL with H91A
notes: as for B11
B26: MYT13240 (antibody, V domains shown)
VH: B1 VH with Y32H, H60Y, H64F, H65K
VL: B1 VL with A51H, Q89H
notes: as for B11
B27: MYT13204 (antibody, V domains shown)
VH: B1 VH with H60Y, D63H, H64F, H65K
VL: B1 VL with Q89H
notes: as for B11
B28: MYT13229 (antibody, V domains shown)
VH: B1 VH with H60Y, H65K
VL: B1 VL with I93H
notes: as for B11
B29: MYT13243 (antibody, V domains shown)
VH: B1 VH with H60Y, D62H, H64F, H65K
VL: B1 VL with A51H, Q89H
notes: as for B11
B30: MYT13230 (antibody, V domains shown)
VH: B1 VH with H60Y, H64F
VL: B1 VL with I93H
notes: as for B11
B31: MYT13206 (antibody, V domains shown)
VH: B1 VH with H60Y, H64F
VL: B1 VL with Q89H
notes: as for B11
B32: MYT13236 (antibody, V domains shown)
VH: B1 VH with H60Y, D63H, H64F, H65K
VL: B1 VL with A51H, S52H
notes: as for B11
B33: MYT13227 (antibody, V domains shown)
VH: B1 VH with H60Y, D62H, H64F, H65K
VL: B1 VL with I93H
notes: as for B11
B34: MYT13244 (antibody, V domains shown)
VH: B1 VH with H60Y, D63H, H64F, H65K
VL: B1 VL with A51H, Q89H
notes: as for B11
B35: MYT13234 (antibody, V domains shown)
VH: B1 VH with H64F, H65K
VL: B1 VL with A51H, S52H
notes: as for B11
B36: MYT13231 (antibody, V domains shown)
VH: B1 VH with H60Y, H64F, H65K, G66H
VL: B1 VL with I93H
notes: as for B11
B37: MYT13213 (antibody, V domains shown)
VH: B1 VH with H60Y, H65K
VL: B1 VL with H91A
notes: as for B11
B38: MYT13247 (antibody, V domains shown)
VH: B1 VH with H60Y, H64F, H65K, G66H
VL: B1 VL with A51H, Q89H
notes: as for B11
B39: MYT12295 (antibody, V domains shown)
VH: B1 VH with Y32H, H64F, H65K
VL: B1 VL
notes: sacituzumab VH 32, 60 -> H
B40: MYT12297 (antibody, V domains shown)
VH: B1 VH with Y32H, H60Y, D63H, H64F, H65K
VL: B1 VL
notes: sacituzumab VH 32, 63 -> H
B41: MYT12298 (antibody, V domains shown)
VH: B1 VH with Y32H, H60Y, H65K
VL: B1 VL
notes: sacituzumab VH 32, 64 -> H

The first assay addresses T1, Human TROP2 Protein, His Tag (Acro …). Put plainly: BLI (Octet) [1/2].
On to B1, for which the binding result is “binds”.
Same read-out and setting: the result for B2 reads “binds”.
The same measure, in the same setting: the result for B3 reads “binds”.
On to B4, for which the binding result was “binds”.
As to B5, the binding result is “binds”.
B6: the binding result is on record as “binds”.
Regarding B7, the binding result is “binds”.
Still for that read-out and setting: the result for B8 reads “binds”.
Still for that read-out and setting: the result for B9 reads “binds”.
On the same count and under the same terms, the result for B10 reads “binds”.

Another assay has as its target T2, Human TROP2 Protein, His Tag (Acro …). Kind of assay: BLI (Octet) [1/2].
For B11, the binding result was “binds”.
Consider B12, for which the binding result is “binds”.
Regarding B13, the binding result is “binds”.
Same read-out and setting: the result for B14 reads “binds”.
Same read-out and setting: the result for B15 reads “binds”; that for B16, “binds”.
As for B17, the binding result is reported as “binds”.
With B18, the binding result is listed as “binds”.
As to B19, the binding result is listed as “binds”.
For the molecule B20, the binding result is reported as “binds”.
Still for that read-out and setting: the result for B21 reads “binds”.
The same measure, in the same setting: the result for B22 reads “binds”.
Still for that read-out and setting: the result for B23 reads “binds”; that for B24, “binds”.
In the case of B25, the binding result was “binds”.
Take B26: the binding result is listed as “binds”.
Consider B27, for which the binding result is listed as “binds”.
As to B28, the binding result is “binds”.
As for B29, the binding result is “binds”.
Regarding B30, the binding result is “binds”.
On the same count and under the same terms, the result for B31 reads “binds”; that for B32, “binds”.
As for B33, the binding result is “binds”.
Still for that read-out and setting: the result for B34 reads “binds”; that for B35, “binds”; that for B36, “binds”.
On the same count and under the same terms, the result for B37 reads “binds”; that for B38, “binds”.

A further assay deals with T1, Human TROP2 Protein, His Tag (Acro …). Kind of assay: BLI (Octet). A general note: Biolayer interferometry detects binding as a change in optical thickness at a sensor tip.
As for B39, the binding result was “binds”.
As to B40, the binding result was “binds”.
As to B41, the binding result is on record as “binds”.
